Experiment [1] addresses NDUFS6 (human) (UniProt O75380). As to the kind of experiment: BioID-MS +ONC201.
Experiment [2] concerns the target BCKDHB (human) (UniProt P21953). Briefly: BioID-MS +ONC201.

Sequence of BCKDHB (human) (P21953 51-392 limits assumed): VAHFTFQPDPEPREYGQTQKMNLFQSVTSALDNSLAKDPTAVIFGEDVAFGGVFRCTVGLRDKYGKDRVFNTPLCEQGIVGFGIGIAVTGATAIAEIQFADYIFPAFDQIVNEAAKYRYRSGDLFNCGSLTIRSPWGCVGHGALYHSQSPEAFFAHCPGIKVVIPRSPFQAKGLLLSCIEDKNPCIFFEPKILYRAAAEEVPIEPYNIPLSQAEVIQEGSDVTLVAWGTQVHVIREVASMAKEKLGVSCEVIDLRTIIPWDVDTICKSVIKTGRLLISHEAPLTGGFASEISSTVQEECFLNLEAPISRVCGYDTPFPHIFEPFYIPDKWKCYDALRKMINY
Sequence of NDUFS6 (human) (O75380 29-124 limits assumed): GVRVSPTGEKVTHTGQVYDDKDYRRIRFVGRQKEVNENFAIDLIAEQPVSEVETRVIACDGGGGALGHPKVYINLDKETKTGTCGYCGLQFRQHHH

For “FlagBirA-ClpP (WT) (from UniProt P06709 1-321; Q16740 57-277) (enzyme)”, the Log2 Fold change (vs control) in experiment [1] is -6.32 log2; in experiment [2], -4.91 log2.

For the origin of these results see US20220143024A1, “METHODS OF USING IMIPRIDONES” (Board of Regents, The University of Texas System, priority 2019, published 2022).
